Experimental findings from publication PMC3223260 (Biochimica et biophysica acta, 2011) are described below.

B1: IF3mt lacking the N- and C-terminal extensions (IF3mtΔNC) (domain or fragment, human, UniProt Q9H2K0 61-245, looked up)
chain: TQNEGKKTKKNKTAFSNVGRKISQRVIHLFDEKGNDLGNMHRANVIRLMDERDLRLVQRNTSTEPAEYQLMTGLQILQERQRLREMEKANPKTGPTLRKELILSSNIGQHDLDTKTKQIQQWIKKKHLVQITIKKGKNVDVSENEMEEIFHQILQTMPGIATFSSRPQAVQGGKALMCVLRAFSK
B4: C-domain with the linker region of IF3mt (IF3mt(C+L)) (domain or fragment, human, UniProt Q9H2K0 131-278, looked up)
chain: MTGLQILQERQRLREMEKANPKTGPTLRKELILSSNIGQHDLDTKTKQIQQWIKKKHLVQITIKKGKNVDVSENEMEEIFHQILQTMPGIATFSSRPQAVQGGKALMCVLRAFSKNEEKAYKETQETQERDTLNKDHGNDKESNVLHQ

Targets include PTCD3 (bovine (endogenous in bovine …, UniProt Q2KI62 38-688)); MRPS18-2 (bovine (endogenous in bovine …, UniProt P82918 36-258)); MRPS29 (bovine (endogenous in bovine …, UniProt P82922 18-397)).
Assay in all cases: cross-linking
For assay [1], the target named is Full length mature human mitochondrial translational initiation factor 3 (IF3mt) (human, UniProt Q9H2K0 32-278).
The target of assay [2] is B1.
In assay [3] the target is B4.

Chain of PTCD3 (bovine (Q2KI62 38-688): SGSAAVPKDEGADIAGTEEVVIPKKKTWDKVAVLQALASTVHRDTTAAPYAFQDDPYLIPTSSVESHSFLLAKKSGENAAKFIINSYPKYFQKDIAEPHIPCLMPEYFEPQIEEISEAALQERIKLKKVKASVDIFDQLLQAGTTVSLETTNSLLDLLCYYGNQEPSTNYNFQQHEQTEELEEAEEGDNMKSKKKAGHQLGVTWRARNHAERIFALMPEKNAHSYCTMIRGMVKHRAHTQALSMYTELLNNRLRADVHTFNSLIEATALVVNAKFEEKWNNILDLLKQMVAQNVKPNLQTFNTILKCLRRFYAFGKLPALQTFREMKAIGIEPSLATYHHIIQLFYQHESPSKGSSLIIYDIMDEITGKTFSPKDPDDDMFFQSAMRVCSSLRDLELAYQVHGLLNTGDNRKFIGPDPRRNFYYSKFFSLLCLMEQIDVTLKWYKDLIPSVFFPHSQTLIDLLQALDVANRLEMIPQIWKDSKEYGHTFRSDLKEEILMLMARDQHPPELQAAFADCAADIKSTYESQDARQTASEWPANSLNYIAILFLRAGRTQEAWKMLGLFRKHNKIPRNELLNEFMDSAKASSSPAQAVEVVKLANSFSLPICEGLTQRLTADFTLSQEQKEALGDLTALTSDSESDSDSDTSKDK

Regarding B1, the binding result with PTCD3, in the assay with MRPS18-2 and with MRPS29 was “binds” each time.

B2: MRPS32 (natural protein, UniProt P82927 33-142, looked up)
chain: KSTYSSLPDDYNCKVELALTSDARTIVCYHPSVDIPYEHTKPIPRPDPVHNNEETHDLVLKTRLEEKSEHLEQGPMIEQLSKMFFTTKHRWYPRGQYHRRRRKLNPPKDR
As to B2, the binding result in assay [1], in assay [2] and in assay [3] was “binds” in each case.

B3: MRPS36 (natural protein, UniProt P82908 1-103, looked up)
chain: MMGSKMASASRVVQVVKPHTPLIRFPDRRDNPKPNVSEVLRSAGLPSHTSSISQHSKGSKSPDWLMHQGPPDTAEMIKTLPQKYRRKLVSQEEIEFIQRGGPE
As to B3, the binding result in assay [1] and in assay [3] was “binds” in each case.
B4: the binding result with PTCD3 and in the assay with MRPS29 was “binds” throughout.
